Test results as given in patent US20170107294A1, “ANTI-CD14 ANTIBODIES AND USES THEREOF” (Nordlandssykehuset HF, priority 2014, published 2017).

T1: human CD14 (Homo sapiens, UniProt P08571)
T1 construct: endogenous in cells; host or cells: monocytes in fresh human whole blood (lepirudin)
T1 sequence (P08571 20-345): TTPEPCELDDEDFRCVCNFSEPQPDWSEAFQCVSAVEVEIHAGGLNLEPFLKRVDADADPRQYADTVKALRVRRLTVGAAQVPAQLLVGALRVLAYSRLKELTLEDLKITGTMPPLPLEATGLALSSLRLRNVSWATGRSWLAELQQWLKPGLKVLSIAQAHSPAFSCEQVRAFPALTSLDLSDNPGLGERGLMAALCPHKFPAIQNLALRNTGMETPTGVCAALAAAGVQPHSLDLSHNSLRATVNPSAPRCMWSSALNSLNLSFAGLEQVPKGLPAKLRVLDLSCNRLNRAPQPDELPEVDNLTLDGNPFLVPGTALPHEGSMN

B1: r18D11: recombinant anti-human CD14 mouse/human chimeric IgG2/4 Ab; VL SEQ ID NO:1, VH SEQ ID NO:2 (antibody, V domains shown)
VH: MGWSCIILFLVATATGVHSEVQLVESGGGLMQPKGSLKLSCAASGFTFKTYALNWVRQAPGTGLEWVARIRSKSNNYTTYYADSVKDRFTISRDDSQNMLYLQMNNLKTEDTAMYYCVRPQSGTSFAYWGQGTLVTVSAA
VL: MGWSCIILFLVATATGVHSNIVLTQSPASLAVSLGQRATISCRASESVDSYGNSFMHWYQQKPGQPPKLLIYLASNLESGVPARFSGSGSRTDFTLTIDPVEADDVATYYCQQNNGDPYTFGGGTKLEIIR
modifications: human IgG2/4 constant regions
B2: OmCI: endotoxin-free recombinant bacterial OmCI (coversin), a 16.8-kDa protein, complement C5 inhibitor (protein, UniProt Q5YD59 19-168, looked up)
Complement inhibitor: DSESDCTGSEPVDAFQAFSEGKEAYVLVRSTDPKARDCLKGEPAGEKQDNTLPVMMTFKNGTDWASTDWTFTLDGAKVTATLGNLTQNREVVYDSQSHHCHVDKVEKEVPDYEMWMLDAGGLEVEVECCRQKLEELASGRNQMYPHLKDC
B3: F(ab)92 fragment of 18D11: F(ab)92 fragment of the murine anti-human CD14 clone 18D11 (Diatec) (antibody, V domains shown)
VH: EVQLVESGGGLMQPKGSLKLSCAASGFTFKTYALNWVRQAPGTGLEWVARIRSKSNNYTTYYADSVKDRFTISRDDSQNMLYLQMNNLKTEDTAMYYCVRPQSGTSFAYWGQGTLVTVSAA
VL: NIVLTQSPASLAVSLGQRATISCRASESVDSYGNSFMHWYQQKPGQPPKLLIYLASNLESGVPARFSGSGSRTDFTLTIDPVEADDVATYYCQQNNGDPYTFGGGTKLEIIR
B4: 18D11: mouse anti-human CD14 IgG1 clone 18D11 (Diatec), original murine clone (antibody, V domains shown)
VH: B3 VH
VL: B3 VL

Experiments:
[1] = test system: human whole blood; test: Unwanted effects (complement activation, oxidative burst) in nonstimulated human whole blood; format: cell-based; conditions: 10 mg/ml Ab; for monocyte oxidative burst: flow cytometry; for complement activation: not shown
Experimental: (§1) The whole blood model has been described in detail previously (36). Fresh human venous or porcine arterial blood was drawn directly into tubes containing the anticoagulant lepirudin (Pharmion) at a final concentration of 50 mg/ml. In 1.8-ml Cryo Tube vials (Nunc, Roskilde, Denmark), the blood was preincubated with up to 20 mg/ml anti-human CD14 (r18D11 or 18D11), or 50 mg/ml anti-porcine CD14 (rMil2 or Mil2) at 37° C. for 10 min prior to an additional 2-h incubation in the presence of 100 ng/ml ultrapure LPS from Escherichia coli 0111:B4 (InvivoGen, San Diego, Calif.) for human blood or 1 3 105/ml heat-inactivated E. coli (strain LE392, ATCC33572) for porcine blood. As negative controls, PBS with MgCl2 and CaCl2 (Sigma-Aldrich) and isotype controls were used. Adverse effects were tested using nonactivated whole blood samples. After the addition of 10 mM (human) or 20 mM (porcine) EDTA, plasma was gained by 15 min centrifugation at 3220 3 g and 4° C. Levels of TNF, IL-6, and IL-1b in human plasma were determined using Bioplex technology (Bio-Rad Laboratories AB). Levels of TNF, IL-1b, and IL-8 in porcine plasma were determined using ELISA (Quantikine, R&D Systems, Minneapolis, Minn.). Platelet count was quantified by impedance using a CELL-DYN Sapphire hematology analyzer (Abbott Laboratories, Abbott Park, Ill.).

[2] = biological target: T1, human CD14; test: CD14 binding in flow cytometry, human whole blood (displacement of 18D11 from monocytes)
Experimental: Fresh human or porcine whole blood was drawn into tubes containing the anticoagulants lepirudin (Refludan; Pharmion, Copenhagen, Denmark) or EDTA, respectively. Blood samples were preincubated for 10 min with Ab, #20 mg/ml anti-human CD14 Abs r18D11, 18D11 F(ab)92 (batch 2068, lot 1383), or isotype controls raNIP and mIgG1 F(ab)92 (lot 1501), or […] anti-porcine CD14 Abs rMil2, Mil2 (lot 1106), or the isotype controls 4770 RECOMBINANT ANTI-CD14 Abs Downloaded from University of Oslo, Library of Medicine and Health Science on Jan. 24, 2014 for IgG2/4 and mIgG2b, eculizumab (Soliris) and mIgG2b (lot 1631), respectively. […] Their binding was detected either by using a secondary PEconjugated anti-mouse IgG or through direct FITC fluorescence. […] In subsequent flow cytometry analyses, human monocyte and porcine granulocyte populations were selected based on the forward scatter-side scatter dot plot, and CD14 binding was recorded as mean or median fluorescence intensity, respectively. […] Fluorescence intensities in the presence of the fluorescently labeled Abs only were set to 100%. Flow cytometry analyses on human samples were performed using an LSRII and FACSDiva software version 5.0.3; porcine samples were analyzed on a FACSCalibur using Cell Quest Pro version 5.2.1 for data acquisition (all from BD Biosciences).

[3] = test system: human whole blood; test: Whole blood ex vivo model of inflammation, LPS-induced cytokine release in human blood; format: cell-based; parameters: Ab concentration at which maximum inhibitory effects were reached: unit not given here; conditions: for E. coli ultrapure LPS-induced release of IL-1b, TNF and IL-6: 100 ng/ml LPS, dose-dependent; for Ab concentration at which maximum inhibitory effects were reached: LPS-induced IL-1b, TNF, IL-6 release
Experimental: as §1

[4] = test system: porcine whole blood; test: rMil2 combined with C5 inhibitor OmCI: cytokine production in porcine whole blood ex vivo; format: cell-based; conditions: E. coli-incubated porcine whole blood
Experimental: as §1
Whole blood was incubated with 1 3 106 E. coli per milliliter for 2 h at 37° C. in the absence or presence of inhibitors and controls. TNF, IL-1b, and IL-8 blood was analyzed as described above.

[5] = test system: complement activation; conditions: pigs; cited from earlier work

Molecule	monocyte oxidative burst [1]	complement activation [1]	18D11 displaced from its binding sites on human monocytes ([2]; 10 mg/ml r18D11 vs 10 mg/ml 18D11 (equimolar)) [%]	binding to CD14 on human monocytes (competition with 18D11) ([2]; human whole blood)	E. coli ultrapure LPS-induced release of IL-1b, TNF and IL-6 [3]	Ab concentration at which maximum inhibitory effects were reached [3]	IL-1b release (effect in words) [4]	IL-8 release (effect in words) [4]	TNF release (effect in words) [4]	inhibition of complement activation [5]
B1	did not induce significant oxidative burst	same low level of complement activation	50	dose-dependently outcompeted	inhibited	10	–	–	–	–
B2	–	–	–	–	–	–	not significantly reduced	significantly reduced to almost baseline	significantly reduced	inhibit complement activation effectively
B3	–	did not	–	–	–	–	–	–	–	–
B4	significantly induced	same low level of complement activation	–	–	inhibited	10	–	–	–	–
